In the RNAGym collection of RNA variant scans (doi:10.1093/nar/gkz1192):

B1: CPEB3 Ribozyme (parent)
chain: UAACAGGGGGCCACAGCAGAAGCGUUCACGUCGCAGCCCCUGUCAGAUUCUGGUGAAUCUGCGAAUUCUGCUGUAUAUCUC

Variants of: B1
Assay: self-cleavage, relative activity (ratio to wild type); higher = more cleavage; in vitro, sequencing
Procedure, shortened: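 CPEB3 self-cleaving ribozyme mutant libraries were made by rounds of error-prone PCR, barcoded, and transcribed in vitro with T7 RNA polymerase for 5 hours at 37°C. Cleavage occurred during transcription and a 15 min DNase I step before EDTA stop. RNAs were reverse transcribed with template switching and Illumina-sequenced, with DNA sequencing mapping barcodes to variants. Relative activity is the variant's cleaved/total read fraction divided by wild type's (minimum 5 reads), averaged across three batches.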

| Variant | self-cleavage |
| --- | --- |
| UAACAGGGGGCCACAGCAGAAGCGUUCACGUCGCAGCCCCUGUCAGAUUCUGGUGAAUCUGUGAAUACUGCUGUAUAUCUC [C62U U67A] | 0.29 |
| UAACAGGGGGCCACAGCAGAAGCGUUCACGUCGCAGCCCCUGUCAGAUUCUGGUGAAUCUGUGAAUCCUGCUGUAUAUCUC [C62U U67C] | 0.31 |
| UAACAGGGGGCCACAGCAGAAGCGUUCACGUCGCAGCCCCUGUCAGAUUCUGGUGAAUCUGGGAAUUCUGCUGUAUUUCUC [C62G A77U] | 0.19 |
| UAACAGGGGGCCACAGCAGAAGCGUUCACGUCGCAGCCCCUGUCAGAUUCUGGUGAAUCUGGGAAUUCAGCUGUAUAUCUC [C62G U69A] | 0.15 |
| UAACAGGGGGCCACAGCAGAAGCGUUCACGUCGCAGCCCCUGUCAGAUUCUGGUGAAUCUGGGAAUUCCGCUGUAUAUCUC [C62G U69C] | 0.22 |
| UAACAGGGGGCCACAGCAGAAGCGUUCACGUCGCAGCCCCUGUCAGAUUCUGGUGAAUCUGAGAAUUCUGCUGAAUAUCUC [C62A U74A] | 0.18 |
| UAACAGGGGGCCACAGCAGAAGCGUUCACGUCGCAGCCCCUGUCAGAUUCUGGUGAAUCUGAGAAUUCUGCUGCAUAUCUC [C62A U74C] | 0.4 |
| UAACAGGGGGCCACAGCAGAAGCGUUCACGUCGCAGCCCCUGUCAGAUUCUGGUGAAUCUGUGAAUUCUGCUGAAUAUCUC [C62U U74A] | 0.32 |
| UAACAGGGGGCCACAGCAGAAGCGUUCACGUCGCAGCCCCUGUCAGAUUCUGGUGAAUCUGUGAAUUCUGCUGGAUAUCUC [C62U U74G] | 0.19 |
| UAACAGGGGGCCACAGCAGAAGCGUUCACGUCGCAGCCCCUGUCAGAUUCUGGUGAAUCUGUGAGUUCUGCUGUAUAUCUC [C62U A65G] | 0.27 |
| UAACAGGGGGCCACAGCAGAAGCGUUCACGUCGCAGCCCCUGUCAGAUUCUGGUGAAUCUGUGAUUUCUGCUGUAUAUCUC [C62U A65U] | 0.14 |
| UAACAGGGGGCCACAGCAGAAGCGUUCACGUCGCAGCCCCUGUCAGAUUCUGGUGAAUCUGUGAAUUCUGCUGUAUACCUC [C62U U78C] | 0.2 |
| UAACAGGGGGCCACAGCAGAAGCGUUCACGUCGCAGCCCCUGUCAGAUUCUGGUGAAUCUGUGAAUUCUGCUGUAUAACUC [C62U U78A] | 0.28 |
| UAACAGGGGGCCACAGCAGAAGCGUUCACGUCGCAGCCCCUGUCAGAUUCUGGUGAAUCUGUGUAUUCUGCUGUAUAUCUC [C62U A64U] | 0.29 |
| UAACAGGGGGCCACAGCAGAAGCGUUCACGUCGCAGCCCCUGUCAGAUUCUGGUGAAUCUGUGGAUUCUGCUGUAUAUCUC [C62U A64G] | 0.19 |
| UAACAGGGGGCCACAGCAGAAGCGUUCACGUCGCAGCCCCUGUCAGAUUCUGGUGAAUCUGUGAAUUCUGCUGUAAAUCUC [C62U U76A] | 0.25 |
| UAACAGGGGGCCACAGCAGAAGCGUUCACGUCGCAGCCCCUGUCAGAUUCUGGUGAAUCUGUGAAUUCUGCUGUACAUCUC [C62U U76C] | 0.33 |

| Variant | self-cleavage |
| --- | --- |
| UAACAGGGGGCCACAGCAGAAGCGUUCACGUCGCAGCCCCUGUCAGAUUCUGGUGAAUCUGAGAAUUCUGCUGUACAUCUC [C62A U76C] | 0.17 |
| UAACAGGGGGCCACAGCAGAAGCGUUCACGUCGCAGCCCCUGUCAGAUUCUGGUGAAUCUGGGAAUUCUGCUGUAUAUCUC [C62G] | 0.3 |
| UAACAGGGGGCCACAGCAGAAGCGUUCACGUCGCAGCCCCUGUCAGAUUCUGGUGAAUCUGUGAAUUCUGCUGUAUAUCUC [C62U] | 0.2 |
| UAACAGGGGGCCACAGCAGAAGCGUUCACGUCGCAGCCCCUGUCAGAUUCUGGUGAAUCUGGGAAUUCUGUUGUAUAUCUC [C62G C71U] | 0.38 |
| UAACAGGGGGCCACAGCAGAAGCGUUCACGUCGCAGCCCCUGUCAGAUUCUGGUGAAUCUGGGAAUUCUGCUGUAUAUAUC [C62G C79A] | 0.24 |
| UAACAGGGGGCCACAGCAGAAGCGUUCACGUCGCAGCCCCUGUCAGAUUCUGGUGAAUCUGGGAUUUCUGCUGUAUAUCUC [C62G A65U] | 0.27 |
| UAACAGGGGGCCACAGCAGAAGCGUUCACGUCGCAGCCCCUGUCAGAUUCUGGUGAAUCUGUGAAUUCUGCUGUAUAUCCC [C62U U80C] | 0.28 |
| UAACAGGGGGCCACAGCAGAAGCGUUCACGUCGCAGCCCCUGUCAGAUUCUGGUGAAUCUGUGAAUUCUGCUGUAUAUCAC [C62U U80A] | 0.3 |
| UAACAGGGGGCCACAGCAGAAGCGUUCACGUCGCAGCCCCUGUCAGAUUCUGGUGAAUCUGCAAAUUCUGCUGUAUAUCUC [G63A] | 0.87 |
| UAACAGGGGGCCACAGCAGAAGCGUUCACGUCGCAGCCCCUGUCAGAUUCUGGUGAAUCUGGGAAUUCUGCUGUAUAUCAC [C62G U80A] | 0.25 |
| UAACAGGGGGCCACAGCAGAAGCGUUCACGUCGCAGCCCCUGUCAGAUUCUGGUGAAUCUGUGAAUUCAGCUGUAUAUCUC [C62U U69A] | 0.38 |
| UAACAGGGGGCCACAGCAGAAGCGUUCACGUCGCAGCCCCUGUCAGAUUCUGGUGAAUCUGUGAAUUCCGCUGUAUAUCUC [C62U U69C] | 0.32 |
| UAACAGGGGGCCACAGCAGAAGCGUUCACGUCGCAGCCCCUGUCAGAUUCUGGUGAAUCUGAGAAUUCUGCUGUAUAUCAC [C62A U80A] | 0.1 |
| UAACAGGGGGCCACAGCAGAAGCGUUCACGUCGCAGCCCCUGUCAGAUUCUGGUGAAUCUGAGAAUUCUGCUGUAUAUCCC [C62A U80C] | 0.34 |
| UAACAGGGGGCCACAGCAGAAGCGUUCACGUCGCAGCCCCUGUCAGAUUCUGGUGAAUCUGAGAAUUCUGCUGUAUAACUC [C62A U78A] | 0.16 |
| UAACAGGGGGCCACAGCAGAAGCGUUCACGUCGCAGCCCCUGUCAGAUUCUGGUGAAUCUGAGAAUUCUGCUGUAUACCUC [C62A U78C] | 0.16 |
| UAACAGGGGGCCACAGCAGAAGCGUUCACGUCGCAGCCCCUGUCAGAUUCUGGUGAAUCUGCAAGUUCUGCUGUAUAUCUC [G63A A65G] | 0.38 |
